Biological target: the molecule itself
Test: HPLC sedimentation assay of aggregation

B1: Q35 (peptide)
peptide: KKQQQQQQQQQQQQQQQQQQQQQQQQQQQQQQQQQQQKK
Does B1 bind?
Result: binds

B2: Q35P10 (peptide)
peptide: KKQQQQQQQQQQQQQQQQQQQQQQQQQQQQQQQQQQQPPPPPPPPPPKK
Does B2 bind?
Result: binds
